Source: PMC7286605
Where “and” joins values, the source holds several entries; their conditions need not be identical. Equal values may be shown once.

Experiments:
[1] = biological target: water-soluble variant of the μ-opioid receptor (wsMOR) (UniProt P35372); assay: MoS2 field-effect transistor biosensor
[2] = biological target: water-soluble variant of the μ-opioid receptor (wsMOR) (UniProt P35372); assay: photonic crystal Fano resonance shift

## DAMGO ([D-Ala2, N-MePhe4, Gly-ol]-enkephalin) (peptide)
[1]
  EC50: 1.2 nM and 1.5 nM
  Kd: 3.6 nM
[2]
  EC50: 1 nM and 1.2 nM
  Kd: 2.5 nM
